Molecular target: Notch (Notch pathway receptors) in MC3T3-E1 murine osteoblasts (mouse)
Assay: cell-based or functional assay

Notch activity (firefly luciferase Notch reporter in MC3T3-E1 osteoblasts cocultured with JAG1 OE tumor cells): 6 fold
Substance: human JAGGED1 overexpressed in SCP28 breast cancer cells (JAG1 OE tumor cells) (from UniProt P78504 34-1218) (ligand)
